Data on 1 molecule can be found in publication PMC11161652, “ASXLs binding to the PHD2/3 fingers of MLL4 provides a mechanism for the recruitment of BAP1 to active enhancers” (Nature Communications, 2024).

Experiment [1] addresses T1, MLL3_(PHD2/3) D400K (human, UniProt Q8NEZ4 342-439, D400K).
T1 construct: human MLL3 (KMT2C), aa 342-439; source: E. coli BL21-CodonPlus, purified as WT
T1 sequence (looked up): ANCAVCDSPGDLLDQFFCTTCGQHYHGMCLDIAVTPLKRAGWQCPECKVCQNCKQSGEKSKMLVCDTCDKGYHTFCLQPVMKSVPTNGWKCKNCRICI
The experiment is described as follows: not stated; fluorescence spectroscopy or NMR: the legends of Fig. 3c and Fig. 4b say that values marked (a) are from NMR and the others from fluorescence; the text does not tell which for these pairs. The note with it: both partners purified.

For a further experiment, the target named is T2, MLL4_(PHD2/3) D285K (human, UniProt O14686 227-324, D285K).
T2 construct: human MLL4 (KMT2D), aa 227-324; source: E. coli BL21-CodonPlus, purified as WT
T2 sequence (looked up): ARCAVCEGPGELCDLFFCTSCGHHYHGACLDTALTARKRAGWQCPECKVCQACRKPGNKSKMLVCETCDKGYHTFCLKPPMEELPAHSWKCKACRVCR
The experiment is described as above. Conditions: both partners purified.

Experiment [2] addresses T3, MLL3_(PHD2/3) D372K (human, UniProt Q8NEZ4 342-439, D372K).
T3 construct: human MLL3 (KMT2C), aa 342-439; source: E. coli BL21-CodonPlus, purified as WT
T3 sequence (looked up): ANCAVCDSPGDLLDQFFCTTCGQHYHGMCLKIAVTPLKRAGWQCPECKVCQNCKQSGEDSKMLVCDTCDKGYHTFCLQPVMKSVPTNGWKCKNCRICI
Described as above. Conditions: both partners purified.

Experiment [3] deals with T4, MLL4_(PHD2/3) E292K (human, UniProt O14686 227-324, E292K).
T4 construct: human MLL4 (KMT2D), aa 227-324; E292K is said to be found in cancers (Cosmic); source: E. coli BL21-CodonPlus, purified as WT
T4 sequence (looked up): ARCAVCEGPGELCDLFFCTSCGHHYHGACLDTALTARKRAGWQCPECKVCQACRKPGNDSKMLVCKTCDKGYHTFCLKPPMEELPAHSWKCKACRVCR
Kind of experiment: other fluorescence titration; tryptophan fluorescence, 25 °C; 1.0 µM MLL4 PHD2/3 or MLL3 PHD2/3 with increasing peptide; excitation 295 nm; 20 mM Tris pH 7.2, 150 mM NaCl, 1 mM TCEP, 0.02% Tween20; average of three measurements. Conditions: both partners purified.

The target in experiment [4] is T5, PHD2 and PHD3 fingers of human MLL4 (aa 227-324) (human, UniProt O14686 227-324).
T5 construct: PHD2 and PHD3 fingers of human MLL4 (KMT2D), aa 227-324; also called MLL4_(PHD2/3); MLL4 PHD2/3; source: E. coli BL21-CodonPlus, purified (glutathione agarose, PreScission cleavage; unlabeled proteins also SEC)
T5 sequence (looked up): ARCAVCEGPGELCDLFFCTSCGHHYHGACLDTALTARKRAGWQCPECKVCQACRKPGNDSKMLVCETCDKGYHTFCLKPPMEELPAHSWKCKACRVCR
Described as above. The note with it: both partners purified.

The target of another experiment is T6, MLL4_(PHD2/3) D257K (human, UniProt O14686 227-324, D257K).
T6 construct: human MLL4 (KMT2D), aa 227-324; source: E. coli BL21-CodonPlus, purified as WT
T6 sequence (looked up): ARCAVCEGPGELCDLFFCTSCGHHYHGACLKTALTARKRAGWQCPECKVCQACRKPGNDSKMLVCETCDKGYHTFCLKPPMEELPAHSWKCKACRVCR
The experiment is described as above. Conditions: both partners purified.

Another experiment concerns the target T7, MLL4_(PHD2/3) S314A (human, UniProt O14686 227-324, S314A).
T7 construct: human MLL4 (KMT2D), aa 227-324; source: E. coli BL21-CodonPlus, purified as WT
T7 sequence (looked up): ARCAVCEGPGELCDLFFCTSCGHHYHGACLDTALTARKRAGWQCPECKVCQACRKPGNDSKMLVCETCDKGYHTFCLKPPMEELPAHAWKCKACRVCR
The experiment is described as above. The note with it: both partners purified.

In experiment [5] the target is MLL4_(PHD2/3) E292K (human, UniProt O14686 227-324, E292K).
In a further experiment the target is T8, MLL3_(PHD2/3) E387Q (human, UniProt Q8NEZ4 342-439, E387Q).
T8 sequence: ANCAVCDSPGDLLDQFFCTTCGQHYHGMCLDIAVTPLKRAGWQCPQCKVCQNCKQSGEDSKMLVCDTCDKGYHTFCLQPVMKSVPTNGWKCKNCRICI

In experiment [6] the target is T9, MLL3_(PHD2/3) D372K (human, UniProt Q8NEZ4 342-439, D372K).
T9 sequence: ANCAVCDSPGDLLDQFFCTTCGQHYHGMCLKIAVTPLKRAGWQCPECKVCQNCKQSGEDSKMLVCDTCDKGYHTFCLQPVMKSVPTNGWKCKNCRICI

Experiment [7] has as its target T10, MLL3_(PHD2/3) D400K (human, UniProt Q8NEZ4 342-439, D400K).
T10 sequence: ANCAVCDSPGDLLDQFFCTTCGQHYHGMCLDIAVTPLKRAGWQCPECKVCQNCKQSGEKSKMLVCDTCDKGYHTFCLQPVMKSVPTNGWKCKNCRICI

For the next experiment, the target named is T11, MLL3_(PHD2/3) D372N (human, UniProt Q8NEZ4 342-439, D372N).
T11 sequence: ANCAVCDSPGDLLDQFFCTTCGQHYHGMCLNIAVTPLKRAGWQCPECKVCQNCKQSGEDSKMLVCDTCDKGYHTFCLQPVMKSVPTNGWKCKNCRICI

Broadly, the Kd is the free concentration of one partner at which half of the binding sites on the other are occupied at equilibrium, for simple one-to-one binding. The low end stands for tighter binding, the high end for weaker binding.

B1: ASXL2 peptide (residues 650-670 of ASXL2) (peptide, UniProt Q76L83 650-670, looked up)
peptide: NRTGARTLADIKAKAQLVKAQ
notes: also called ASXL2 (aa 650-670); MBH of ASXL2; source: synthetic peptide (SynPeptide)
As to B1, the entries for the “fold reduction in binding against wild type MLL3_(PHD2/3)” value in the experiment with MLL3_(PHD2/3) D400K [1] and with MLL3_(PHD2/3) D372K [2] were 400 fold and approximately 40 fold, respectively. The Kd in the experiment with MLL4_(PHD2/3) D285K is approximately 1700 µM; in experiment [4] it was 0.7 µM; with MLL4_(PHD2/3) D257K it was 27 µM; with MLL4_(PHD2/3) S314A, 0.8 µM; with MLL4_(PHD2/3) E292K [5], 10 µM; with MLL3_(PHD2/3) E387Q, 6 µM. For the same molecule, the Kd with MLL3_(PHD2/3) D372K [6] stood at 55 µM; with MLL3_(PHD2/3) D400K [7], 540 µM; with MLL3_(PHD2/3) D372N, 9 µM. In addition, in the experiment with MLL4_(PHD2/3) E292K [3], the “fold reduction in binding against wild type MLL4_(PHD2/3)” value is approximately 14 fold.
